According to US12545745B2, “Method for treating a degenerative neurological disorders comprising administering ASM inhibitor” (KYUNGPOOK NATIONAL UNIVERSITY INDUSTRY-ACADEMIC COOPERATION …, priority 2013, dated 2026):

Assays:
ASM = biological target: T1, ASM (Mus musculus, UniProt Q04519); assay: ASM activity in plasma of ALS animal model (FUS R521C mice); type: in vivo; details: 7-week-old ALS mice, 50 mg/kg i.p. twice weekly, vs PBS; FIG. 56B
T1 construct: from tissue; host or cells: mouse serum/plasma and brain tissue (APP/PS1, RSD-stressed C57BL/6, FUS R521C mice)
T1 sequence (Q04519 45-627): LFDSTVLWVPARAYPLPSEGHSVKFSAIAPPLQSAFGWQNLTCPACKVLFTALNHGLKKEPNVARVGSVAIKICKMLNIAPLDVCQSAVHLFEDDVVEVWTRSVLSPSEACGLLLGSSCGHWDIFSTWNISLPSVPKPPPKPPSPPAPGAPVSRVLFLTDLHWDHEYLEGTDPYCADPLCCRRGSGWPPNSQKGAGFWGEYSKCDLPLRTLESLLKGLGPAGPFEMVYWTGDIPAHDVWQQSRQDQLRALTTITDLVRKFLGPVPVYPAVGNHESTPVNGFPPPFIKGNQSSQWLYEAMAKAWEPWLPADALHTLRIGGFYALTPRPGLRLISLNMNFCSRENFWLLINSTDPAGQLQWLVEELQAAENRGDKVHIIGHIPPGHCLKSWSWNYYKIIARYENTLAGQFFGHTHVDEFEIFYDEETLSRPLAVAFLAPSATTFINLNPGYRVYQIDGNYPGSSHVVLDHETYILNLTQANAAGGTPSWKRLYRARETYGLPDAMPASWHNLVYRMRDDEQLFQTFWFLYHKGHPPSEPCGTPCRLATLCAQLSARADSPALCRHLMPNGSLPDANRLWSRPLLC

ASM protein = ASM protein concentration in plasma of APP/PS1 mice (ELISA); type: in vivo, mouse; details: 50 mg/kg i.p. twice weekly, between groups, FIG. 51C
[1] = test system: depression-induced animal model (WT/RSD); assay: Depression behaviour tests (Open field, Dark & Light, Tail suspension, Force swim) in RSD mice; type: in vivo, mouse; details: 50 mg/kg i.p. twice weekly, vs PBS, FIG. 59A-59D
Description: For depression-induced animal model, C57BL/6 mice (Charles River, UK) were used as those with depression by inducing Repeated Social Defeat (RSD) stress for 10 days. Repeated Social Defeat (RSD) stress was induced by placing two male, 6-8 week-old C57BL/6 mice with one male, 6-8 week-old CD-1 mouse (aggressive intruder mouse) in the same cage for 10 days, 2 hours daily. After 10 days, depression of C57BL/6 mice was confirmed through the depression behavior test. To confirm the therapeutic effect of ASM inhibitor (Smpd1 miR RNAi) in the depressed animal model, 6-week-old male C57BL/6 mice were injected with said ASM inhibitor via tail vein injection twice weekly in a dosage of 50 μg/mice for 4 weeks prior to the induction of depression. Four weeks later, behavioral analysis was performed after inducing Repeated Social Defeat (RSD) stress for 10 days, followed by obtaining plasma samples of the mice (FIG. 47A). To determine whether ASM inhibition by Smpd1 miR RNAi injection leads to the improvement of depression in a depression-induced animal model, an Open field test, a Dark & Light test, a Tail suspension test and Force swim test were performed, respectively. For depression-induced animal model, C57BL/6 mice (Charles River, UK) were used as those with depression by inducing Repeated Social Defeat (RSD) stress for 10 days. […]

[2] = test system: ALS animal model (FUS R521C); assay: Motor function tests (Tail suspension, Hanging wire, Rotarod) in ALS animal model; type: in vivo, mouse; details: ALS mice, 50 mg/kg i.p. twice weekly, vs PBS, FIG. 57A-57C
APP/PS1 mice = assay: Morris water maze (MWM) test in APP/PS1 mice; type: in vivo, mouse; details: 50 mg/kg i.p. twice weekly, vs PBS, FIG. 55A-55C
Description: More specifically, wild type mice, APP/PS1/ASM^+/− mice, ASM^+/− mice and APP/PS1 mice were used. The mice were given four trials per day for 10 days to learn the task, and on day 11, the mice were given a probe trial in which the platform was removed. The escape latency during the test period and the time spent in the target platform on day 11 were measured. The results are illustrated in FIG. 7 and FIG. 8.
(§1) MWM (Morris water maze) experiments were performed in a conventional manner to identify potential effects on learning and memory. Briefly, for the MWM test, mouse were learned the task four times a day for 10 days, followed by the removal of the platform on the 11th day and subsequently a probe trial performed.
as §1, with “mice” for “mouse”

level of ASM activity in the plasma (ASM): remarkably low
B1: ASM-ab 23A12C3: self-made monoclonal ASM antibody, Koma biotech; heavy chain SEQ ID NO. 29, light chain SEQ ID NO. 30 (antibody)
heavy: MGWSWIFLFLLSGTAGVHSEVQLQQSGPVLVKPGASVKMSCKASGYTFTDYYMNWVKQSHGKSLEWIGVINPYNDGTSYNQKFKGKATLTVDKSSSTAYMELNSLTSEDSAVYYCAREKLYYYGRDYAMDYWGQGTSVTVSSAKTTPPSVYPLAPGSAAQTNSMVTLGCLVKGYFPEPVTVTWNSGSLSSGVHTFPAVLQSDLYTLSSSVTVPSSTWPSQTVTCNVAHPASSTKVDKKIVPRDCGCKPCICTVPEVSSVFIFPPKPKDVLTITLTPKVTCVVVDISKDDPEVQFSWFVDDVEVHTAQTKPREEQINSTFRSVSELPIMHQDWLNGKEFKCRVNSAAFPAPIEKTISKTKGRPKAPQVYTIPPPKEQMAKDKVSLTCMITNFFPEDITVEWQWNGQPAENYKNTQPIMDTDGSYFVYSKLNVQKSNWEAGNTFTCSVLHEGLHNHHTEKSLSHSPGK
light: MSSAQFLGLLLLCFQGTRCDIQMTQTTSSLSASLGDRVTISCRSSQDISNYLNWCQQKPDGTVKLLIYYTSRLHSGVPSRFSGSGSGTDYSLTISNLEQEDIATYFCQQDNTLPYTFGGGTKLEIKRADAAPTVSIFPPSSEQLTSGGASVVCFLNNFYPKDINVKWKIDGSERQNGVLNSWTDQDSKDSTYSMSSTLTLTKDEYERHNSYTCEATHKTSTSPIVKSFNRNEC
modifications: 23A12C3_Heavy chain; 23A12C3_Light chain
notes: self-made monoclonal ASM antibody, Koma biotech; 30
plasma ASM protein concentration (ASM protein): no difference | symptoms of depression [1]: significantly improve | impairment in motor function [2]: improved | impairments in spatial memory, cognition and memory formation (MWM) (APP/PS1 mice): improved
